Like-named read-outs stand apart in the source and are kept apart here.
B1: H1H2195P: human IgG1 Fc anti-EGFRvIII antibody; HCVR/LCVR SEQ ID NOs 18/26 (antibody, V domains shown)
VH: QVQLVESGGGVVQPGRSRRLSCVGSGFIFSSYGMHWVRQAPGKGLEWVALIFYDGSNEYYVDSVKGRFTISRDNSKNTLYLQMNSLRAEDTAVYYCAREGYSQRYKYYFGMDVWGQGTTVTVSS
VL: DIQMTQSPSSVSASVGDRVTITCRASQGISSWLAWYQQQPGKAPKLLIYAASSLQSGVPSRFSGSGSGTDFTLTISSLQPEDFATYYCQQTNSFPLTFGGGTKVEIKR
modifications: human IgG1 Fc
B2: H1H1911N: human IgG1 Fc anti-EGFRvIII antibody with variable domains 1911; HCVR/LCVR SEQ ID NOs 50/58 (antibody, V domains shown)
VH: QVQLVESGGGVVQPGRSLRLSCAASGFTFSRYGIHWVRQAPGKGLEWVAVIWHDGSNKYYADSVKGRFTISRDNSKNTLYLQMTSLRAEDTAVYYCARDGLEIRDHYYYGMDVWGQGTTVTVSS
VL: DIQMTQSPSTLSASVGDRVTITCRASQSTSSWLAWYQQKPGKAPTLLIYKASSLESGVPSKFSGSGSGTEFTLTISSLQPDDFATYYCQQYNRYSRTFGQGTKVEIK
modifications: human IgG1 Fc
B3: H1H1912N: human IgG1 Fc anti-EGFRvIII antibody with variable domains 1912; HCVR/LCVR SEQ ID NOs 66/74 (antibody, V domains shown)
VH: EVQLVESGGGLVQPGRSLRLSCAASGFTFDDYAMHWVRQVPGKGLEWVSGISWNSGSIGYADSVKGRFTISRDNAKNSLYLQMNSLRAEDTALYYCAKDIHDYGKDYYYYYGMDVWGQGTTVTVSS
VL: EIALTQSPGTLSLSPGERATLSCRASQSVSSTYLAWYQQKPGQAPRLLIYGASSRATGIPDRFSGSGSGTDFTLTISRLEPEDFAVYYCQQYDSSPITFGQGTRLEIK
modifications: human IgG1 Fc

Legend:
EGFRvIII-mmh = EGFRvIII-mmh (Homo sapiens, UniProt P00533, DELINS30-297G); test: SPR (BIACORE) binding kinetics, mAb-capture format; conditions: 37° C., NB=no binding; for ka: analyte EGFRvIII-mmh (monomeric); for kd: analyte EGFRvIII-mmh
Procedure: (§1) Measurements were conducted on a T100 BIACORE™ instrument. […] In the receptor-capture format, either EGFRvIII-mFc or EGFR-mFc, was captured on the BIACORE™ chip and the respective antibodies flowed over. Kinetic association (ka) and dissociation (kd) rate constants were determined by processing and fitting the data to a 1:1 binding model using Scrubber 2.0 curve fitting software. Binding dissociation equilibrium constants (KD) and dissociative half-lives (t1/2) were calculated from the kinetic rate constants as: KD (M)=kd/ka; and t1/2 (min)=ln 2/(60*kd).

EGFR-mmh = EGFR-mmh (Homo sapiens, UniProt P00533); test: SPR (BIACORE) binding kinetics, mAb-capture format; conditions: 37° C., NB=no binding
EGFRvIII-mFc [1] = test: SPR (BIACORE) binding kinetics, mAb-capture format; design: species or system human; conditions: 37° C., NB=no binding; for ka: analyte EGFRvIII-mFc (dimeric); for kd: analyte EGFRvIII-mFc
EGFR-mFc [2] = molecular target: T1, EGFR-mFc (Homo sapiens, UniProt P00533); test: SPR (BIACORE) binding kinetics, mAb-capture format; conditions: 37° C., NB=no binding
EGFRvIII-mFc [3] = assay type: binding, human; conditions: 37° C., receptor-capture, EGFRvIII-mFc captured
Procedure: as §1

EGFR-mFc [4] = molecular target: T1, EGFR-mFc; test: SPR (BIACORE) binding kinetics, receptor-capture format; conditions: 37° C., EGFR-mFc captured, NB=no binding
Procedure: as §1

C-term biotin J-peptide = C-term biotin J-peptide (Homo sapiens, UniProt P00533, DELINS30-297G); test: Antibody specificity by ELISA; conditions: ELISA binding, avidin pre-coated plates
Procedure: (§2) To further characterize anti-hEGFRvIII mAbs, their binding specificity was examined by ELISA. […] For the junctional peptides that were linked to biotin either at C-terminal (SEQ ID NO:149) or N-terminal (SEQ ID NO:150) via a linker, plates were pre-coated with avidin. Also, coated was an irrelevant peptide (control peptide) with or without biotin at its N-terminal. Anti-EGFRvIII antibodies as well as an isotype control antibody were added to coated plates and allowed to incubate for 1 hour at 25° C. The plates were then washed and bound anti-EGFRvIII mAbs were detected with anti-human Fc antibodies conjugated with horse-radish peroxidase (HRP). […] Data analysis used a sigmoidal dose-response model within PRISM™ software.

N-term biotin J-peptide = N-term biotin J-peptide (Homo sapiens, UniProt P00533, DELINS30-297G); test: Antibody specificity by ELISA; conditions: ELISA binding, avidin pre-coated plates
Procedure: as §2

[5] = molecular target: junctional peptide (J-peptide) (Homo sapiens, UniProt P00533, DELINS30-297G); test: Antibody specificity by ELISA; conditions: ELISA binding
Procedure: as §2

Control peptide = test: Antibody specificity by ELISA; conditions: ELISA binding, irrelevant peptide
Procedure: (§3) To further characterize anti-hEGFRvIII mAbs, their binding specificity was examined by ELISA. […] For the junctional peptides that were linked to biotin either at C-terminal (SEQ ID NO:149) or N-terminal (SEQ ID NO:150) via a linker, plates were pre-coated with avidin. Also, coated was an irrelevant peptide (control peptide) with or without biotin at its N-terminal. Anti-EGFRvIII antibodies as well as an isotype control antibody were added to coated plates and allowed to incubate for 1 hour at 25° C. The plates were then washed and bound anti-EGFRvIII mAbs were detected with anti-human Fc antibodies conjugated with horse-radish peroxidase (HRP). Plates were developed with a tetra-methyl-benzidine (TMB) substrate solution to produce a colorimetric reaction and neutralized with sulfuric acid before reading absorbance at 450 nm on a VICTOR™ X5 plate reader. Data analysis used a sigmoidal dose-response model within PRISM™ software. […] NT: Not tested. Controls I-III: As described above.

[6] = system: N-term Biotin control peptide; test: Antibody specificity by ELISA; conditions: ELISA binding, irrelevant peptide with N-terminal biotin
Procedure: as §3

HEK293 cells = test: FACS cell binding selectivity; assay type: cell-based; conditions: 10 μg/ml
Procedure: To determine the specificity of the anti-EGFRvIII mAbs, their binding to HEK293, HEK293 cells expressing EGFRvIII (HEK293/EGFRvIII) and A431 cells, was analyzed by fluorescence activated cell sorting (FACS). HEK293/EGFRvIII cells were prepared by transfecting HEK293 cells with neomycin resistant DNA vectors constitutively expressing full-length hEGFRvIII (SEQ ID NO:147) using LIPOFECTAMINE™ 2000 transfection reagent (INVITROGEN™). At two days post-transfection, cells were placed under G418 selection for approximately two weeks. Populations positively expressing EGFRvIII were isolated via fluorescence activated cell sorting (FACS). The HEK293 cells expressing ˜3×10^6 copies of EGFRvIII per cell were used in the experiment. Briefly, the anti-EGFRvIII antibodies at 10 μg/ml were incubated with cells for 30 minutes at room temperature, washed, incubated with secondary antibody, i.e., phycoerythrin (PE)-labeled goat F(ab′)2 against human IgG (cat #109-116-170, Jackson ImmunoResearch Laboratories), followed by a final wash before FACS analysis. In another set of experiment, anti-EGFRvIII antibodies were directly conjugated via their lysine residues with the fluorescent dye, ALEXA FLUOR® 488 Dye (INVITROGEN™), thereby eliminating the step using the secondary antibody. […] Controls I, II, III, IV and V are described above. MFI: Mean Fluorescence Intensity.

HEK293/EGFRvIII cells = test: Internalization of anti-EGFRvIII mAbs; assay type: cell-based, human; conditions: 37° C., 1 h
Procedure: Anti-EGFRvIII mAbs (10 ug/ml) were incubated with HEK293/[…] (see Example 7, supra) cells for 2 hours on ice followed by two PBS washes. Cells were then subjected to a 30-min incubation on ice with secondary DYLIGHT™ 488-conjugated anti-human IgG Fab fragments (Jackson ImmunoResearch Laboratories) followed by two additional PBS washes. Antibodies were allowed to internalize for 1 h at 37° C. in internalization buffer (PBS+FBS) or remained at 4° C. Cells were fixed in 4% formaldehyde, and nuclei stained with DRAQ5® DNA dye (Cell Signaling Technology, Inc.). Images were acquired at 40× on the IMAGEXPRESS™ high content system (Molecular Devices) and internalized vesicles were quantitated using Columbus software (Perkin Elmer).

[7] = directly labeled (ALEXA FLUOR 488) antibodies

Chain of EGFRvIII-mFc (as listed by the source): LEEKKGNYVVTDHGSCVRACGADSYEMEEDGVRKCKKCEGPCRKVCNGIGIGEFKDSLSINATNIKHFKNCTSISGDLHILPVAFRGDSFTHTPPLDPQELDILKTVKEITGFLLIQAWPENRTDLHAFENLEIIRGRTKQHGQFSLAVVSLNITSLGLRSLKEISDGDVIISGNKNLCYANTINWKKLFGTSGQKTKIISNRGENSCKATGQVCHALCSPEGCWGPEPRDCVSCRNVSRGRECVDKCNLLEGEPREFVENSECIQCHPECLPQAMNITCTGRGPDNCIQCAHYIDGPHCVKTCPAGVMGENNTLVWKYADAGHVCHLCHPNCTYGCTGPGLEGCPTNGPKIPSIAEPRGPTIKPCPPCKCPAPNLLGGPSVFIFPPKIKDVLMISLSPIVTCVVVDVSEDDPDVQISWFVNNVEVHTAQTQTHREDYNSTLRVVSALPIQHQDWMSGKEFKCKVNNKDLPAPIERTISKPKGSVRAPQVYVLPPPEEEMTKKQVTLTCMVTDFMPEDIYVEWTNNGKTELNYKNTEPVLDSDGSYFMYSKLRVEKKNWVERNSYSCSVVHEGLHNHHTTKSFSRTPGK

Row | Molecule | ka (EGFRvIII-mmh) [M⁻¹ s⁻¹] | kd (EGFRvIII-mmh) [s⁻¹] | ka (EGFR-mmh; analyte EGFR-mmh (monomeric)) [M⁻¹ s⁻¹] | kd (EGFR-mmh; analyte EGFR-mmh) [s⁻¹] | ka (EGFRvIII-mFc [1]) [M⁻¹ s⁻¹] | kd (EGFRvIII-mFc [1]) [s⁻¹] | ka (EGFR-mFc [2]; analyte EGFR-mFc (dimeric)) [M⁻¹ s⁻¹] | kd (EGFR-mFc [2]; analyte EGFR-mFc) [s⁻¹] | ka (EGFRvIII-mFc [3]) [M⁻¹ s⁻¹] | kd (EGFRvIII-mFc [3]) [s⁻¹] | ka (EGFR-mFc [4]) [M⁻¹ s⁻¹] | kd (EGFR-mFc [4]) [s⁻¹] | EC50 (C-term biotin J-peptide) [nM] | EC50 (N-term biotin J-peptide) [nM] | EC50 [5] [nM] | EC50 (Control peptide) [nM] | EC50 [6] [nM] | Parental HEK293 MFI (HEK293 cells; secondary PE-labeled anti-Fc) | Parental HEK293 MFI (HEK293 cells; [7]) | internalization (HEK293/EGFRvIII cells)
1 | B1 | 64800 | 0.000694 | 56600 | 0.000523 | 102000 | 0.000113 | 92000 | 0.000189 | 237000 | 2.53e-05 | 225000 | 5.2e-05 | > 10 | > 10 | > 10 | > 10 | > 10 | 1176 |  | 
2 | B2 |  |  |  |  |  |  |  |  | 32900 | 0.000643 | 7770 | 0.00174 | > 10 | > 10 | > 10 | > 10 | > 10 | 1812 | 3593 | Internalization was also observed
3 | B3 | 18300 | 0.0164 |  |  | 20400 | 0.000971 |  |  | 99000 | 0.000537 | 39900 | 0.000914 | > 10 | > 10 | > 10 | > 10 | > 10 |  | 3727 | Internalization was also observed

Reference: patent US11608380B2, “Anti-EGFRvIII antibodies and uses thereof” (REGENERON PHARMACEUTICALS, INC., priority 2014, dated 2023)
